{
  "source": "patent US20220211817A1",
  "about": "“CONTROLLED-RELEASE CNP AGONISTS WITH LOW NPR-C BINDING” (ASCENDIS PHARMA GROWTH DISORDERS A/S, priority 2016, published 2022)",
  "key": {"[1]": {"assay": "Pharmacokinetic study of transient conjugates 10f and 11i in cynomolgus monkeys", "conditions": "single subcutaneous, 0.146 mg CNP-38 eq/kg"}, "[2]": {"conditions": "cynomolgus monkey, in vivo, sc"}, "Male Crl:CD1(ICR) mice": {"test_system": "Male Crl:CD1(ICR) mice", "assay": "Evaluation of cardiovascular effects in the conscious telemetered mouse (subcutaneous administration)", "assay_type": "in vivo", "conditions": "800 μg CNP-38 (eq)/kg subcutaneous; for change in MAP at the 5, 15, and 30 min post dose sampling time points (in words): compared to predose", "protocol": "Male Crl:CD1(ICR) mice (age range 8-13 weeks and body weight range 27.3-35.6 g at start of dosing) were surgically implanted with a TA11PA-C10 telemetry transmitter (Data Sciences International (DSI)) in the carotid artery. The body of the transmitter was placed subcutaneously in the lateral flank of the mouse. The mice were dosed subcutaneously in a latin square crossover design with at least 72 hours between dosing occasions. […] At least four mice were included at each dose level. […] Each time point was presented as the average value of five minute's recording prior to the time point. The monitoring period was selected to cover exposure to the test items both prior to and after Tmax."}, "[3]": {"assay": "Pharmacokinetic profile of conjugate 11i after subcutaneous single-dose administration to cynomolgus monkeys", "conditions": "single s.c. 40 μg CNP-38 eq/kg", "protocol": "As internal standard deuterated CNP-38 conjugate was used.\n200 μL of the supernatant were transferred into a new well-plate and evaporated to dryness (under a gentle nitrogen stream at 35° C.). […] After 3 hours incubation at 37° C. […] 10 μL were injected into the UHPLC-MS system."}, "[4]": {"assay": "Pharmacokinetic profile of CNP-38 after subcutaneous single-dose administration to cynomolgus monkeys", "conditions": "single s.c. 40 μg/kg", "quoted_text": "This study was performed in order to test the pharmacokinetics of CNP-38 after subcutaneous (s.c.) administration in cynomolgus monkeys. Three male monkeys (2-4 years old, 3-5 kg) received a single s.c. injection at a dose of 40 μg/kg of CNP-38.\nMethod: Plasma levels of CNP were analysed using a commercially available competitive radioimmuno-assay (RK-012-03, Phoenix Pharmaceuticals, CA). The assay was applied essentially as described by the manufacturer.\nA few changes to the supplied assay protocol were made. These changes included using in-house CNP calibrant and QC samples to secure consistency between assay runs."}, "recombinant human NEP": {"biological_target": "T1, recombinant human NEP (Homo sapiens, UniProt P08473)", "T1 construct": "purchased Enzo Life Sciences GmbH, Lörrach, Germany", "T1 sequence (P08473 whole entry)": "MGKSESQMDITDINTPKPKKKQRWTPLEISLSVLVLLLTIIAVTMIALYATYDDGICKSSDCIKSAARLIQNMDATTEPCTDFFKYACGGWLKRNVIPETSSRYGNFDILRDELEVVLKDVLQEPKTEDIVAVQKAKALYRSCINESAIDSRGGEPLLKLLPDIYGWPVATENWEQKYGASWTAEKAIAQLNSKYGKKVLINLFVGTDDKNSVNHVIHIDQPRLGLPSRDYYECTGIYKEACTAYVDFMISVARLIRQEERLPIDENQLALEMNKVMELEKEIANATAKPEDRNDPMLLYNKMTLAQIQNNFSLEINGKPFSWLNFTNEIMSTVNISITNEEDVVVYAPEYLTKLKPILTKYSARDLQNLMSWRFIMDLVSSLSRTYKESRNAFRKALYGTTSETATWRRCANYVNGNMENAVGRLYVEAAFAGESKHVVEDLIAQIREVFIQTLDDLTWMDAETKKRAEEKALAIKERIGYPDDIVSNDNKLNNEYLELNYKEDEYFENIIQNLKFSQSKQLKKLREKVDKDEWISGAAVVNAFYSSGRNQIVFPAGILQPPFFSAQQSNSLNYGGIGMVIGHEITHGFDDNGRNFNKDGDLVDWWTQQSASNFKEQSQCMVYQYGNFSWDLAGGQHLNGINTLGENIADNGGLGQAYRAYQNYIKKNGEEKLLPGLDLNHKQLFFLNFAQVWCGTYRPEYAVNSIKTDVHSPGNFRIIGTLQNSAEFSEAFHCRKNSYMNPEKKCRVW", "assay": "Digest of CNP variants by Neutral Endopeptidase in vitro", "assay_type": "in vitro ADME", "conditions": "100 μg CNP equivalents/mL, pH 7.4, 37° C., up to 4 days, normalized to mean CNP-34 or CNP-38 half life", "description": "Samples were taken at different time intervals. […] The resulting reaction products were assigned using HPLC-MS."}, "[5]": {"assay": "Pharmacokinetic study of permanent conjugate 12 g in cynomolgus monkeys", "assay_type": "in vivo", "protocol": "As internal standard deuterated CNP-38 peptide was used.\nAfter 4 hours incubation at 37° C. […] The eluates were transferred into vials. 10 μL were injected into the UPLC-MS system."}, "healthy volunteers [6]": {"test_system": "healthy volunteers", "conditions": "Phase 1 study; cited from earlier work"}, "healthy volunteers [7]": {"test_system": "healthy volunteers", "conditions": "CNP injection; cited from earlier work"}, "[8]": {"conditions": "after iv administration; cited from earlier work"}},
  "note": "Read-outs that look alike come from different tables or passages of the source. Bridge positions count the residues as written; N and C are the ends. Side chains are listed from the residue outwards. Ends that are not written are not given here. reversible linker = not defined here",
  "data": [
    {"compound": "Reversible Lys26 CNP-38 PEG4×10 kDa Conjugate (LQEHPNARKYKGANKKGLSKGCFGLK([reversible linker-PEG 4×10 kDa])LDRIGSMSGLGC; ends and bridges not checked; also: reversible linker structure not given here; UniProt P23582 89-126, looked up, fragment) [Compound 11i]", "values": [
      {"measurement": "tolerability of dose administrations", "setting": "[1]", "value": "well tolerated"},
      {"measurement": "dose site reactions", "setting": "[2]", "value": "No dose site reactions were observed"},
      {"measurement": "terminal half life", "setting": "[2]", "value": "72 to 96", "unit": "h"},
      {"measurement": "HR (heart rate)", "setting": "Male Crl:CD1(ICR) mice", "value": "not impacted"},
      {"measurement": "MAP 5 min post dose (mean ± SD)", "setting": "Male Crl:CD1(ICR) mice", "value": "122.8 ± 5.9", "unit": "mmHg"},
      {"measurement": "MAP 15 min post dose (mean ± SD)", "setting": "Male Crl:CD1(ICR) mice", "value": "121.5 ± 7.5", "unit": "mmHg"},
      {"measurement": "MAP 30 min post dose (mean ± SD)", "setting": "Male Crl:CD1(ICR) mice", "value": "111.5 ± 13.7", "unit": "mmHg"},
      {"measurement": "blood pressure (conclusion)", "setting": "Male Crl:CD1(ICR) mice", "value": "did not decrease blood pressure"},
      {"measurement": "change in MAP at the 5, 15, and 30 min post dose sampling time points (in words)", "setting": "Male Crl:CD1(ICR) mice", "value": "same physiological increase in MAP"},
      {"measurement": "tolerability", "setting": "[3]", "value": "well tolerated"}
    ]},
    {"compound": "CC[C@H](C)[C@@H]1NC(=O)[C@H](CCCNC(=N)N)NC(=O)[C@H](CC(=O)O)NC(=O)[C@H](CC(C)C)NC(=O)[C@H](CCCCN)NC(=O)[C@H](CC(C)C)NC(=O)CNC(=O)[C@H](Cc2ccccc2)NC(=O)[C@@H](NC(=O)CNC(=O)[C@H](CCCCN)NC(=O)[C@H](CO)NC(=O)[C@H](CC(C)C)NC(=O)CNC(=O)[C@H](CCCCN)NC(=O)[C@H](CCCCN)NC(=O)[C@H](CC(N)=O)NC(=O)[C@H](C)NC(=O)CNC(=O)[C@H](CCCCN)NC(=O)[C@H](Cc2ccc(O)cc2)NC(=O)[C@H](CCCCN)NC(=O)[C@H](CCCNC(=N)N)NC(=O)[C@H](C)NC(=O)[C@H](CC(N)=O)NC(=O)[C@@H]2CCCN2C(=O)[C@H](Cc2c[nH]cn2)NC(=O)[C@H](CCC(=O)O)NC(=O)[C@H](CCC(N)=O)NC(=O)[C@@H](N)CC(C)C)CSSC[C@@H](C(=O)O)NC(=O)CNC(=O)[C@H](CC(C)C)NC(=O)CNC(=O)[C@H](CO)NC(=O)[C@H](CCSC)NC(=O)[C@H](CO)NC(=O)CNC1=O", "note": "[CNP-38, reference compound]", "values": [
      {"measurement": "HR (heart rate)", "setting": "Male Crl:CD1(ICR) mice", "value": "not impacted"},
      {"measurement": "MAP 5 min post dose (mean ± SD)", "setting": "Male Crl:CD1(ICR) mice", "value": "102.0 ± 7.5", "unit": "mmHg"},
      {"measurement": "MAP 15 min post dose (mean ± SD)", "setting": "Male Crl:CD1(ICR) mice", "value": "89.5 ± 29.4", "unit": "mmHg"},
      {"measurement": "MAP 30 min post dose (mean ± SD)", "setting": "Male Crl:CD1(ICR) mice", "value": "99.5 ± 25.2", "unit": "mmHg"},
      {"measurement": "change in MAP at the 5, 15, and 30 min post dose sampling time points (in words)", "setting": "Male Crl:CD1(ICR) mice", "value": "significant decrease in MAP"},
      {"measurement": "MAP predose (mean ± SD)", "setting": "Male Crl:CD1(ICR) mice; predose", "value": "106.8 ± 13.4", "unit": "mmHg"},
      {"measurement": "tolerability", "setting": "[4]", "value": "well tolerated"}
    ]},
    {"compound": "Permanent Lys26 CNP-38 PEG4×10 kDa Conjugate [Compound 12g]", "values": [
      {"measurement": "half life norm.", "setting": "recombinant human NEP", "value": "Almost no proteolysis"},
      {"measurement": "bioavailability", "setting": "[5]; cynomolgus monkey, in vivo", "value": "ca. 50%"},
      {"measurement": "dose site reactions", "setting": "[5]; cynomolgus monkey, in vivo", "value": "No dose site reactions were observed"},
      {"measurement": "half life time of CNP-38 content", "setting": "[5]; cynomolgus monkey, in vivo, iv", "value": "approx. 24 h"},
      {"measurement": "tolerability of dose administrations", "setting": "[5]; single intravenous or subcutaneous, 0.146 mg CNP-38 eq/kg", "value": "well tolerated"}
    ]},
    {"compound": "Permanent Lys16 CNP-34 PEG 5 kDa Conjugate (PNARKYKGANKKGLSK(PEG 5 kDa)GCFGLKLDRIGSMSGLGC; cysteine pairing not given here; UniProt P23582 93-126, looked up, fragment) [Compound 17e]", "values": [
      {"measurement": "half life norm.", "setting": "recombinant human NEP", "value": 54.23, "unit": "h"}
    ]},
    {"compound": "BMN-111: a CNP variant with increased NEP resistance in development for the treatment of achondroplasia (PGQEHPNARKYKGANKKGLSKGCFGLKLDRIGSMSGLGC; disulfide 23-39; chains of the INN, looked up)", "values": [
      {"measurement": "haemodynamic effect", "setting": "healthy volunteers [6]", "value": "mild hypotension"}
    ]},
    {"compound": "CNP: C-type natriuretic peptide as named in the background section", "values": [
      {"measurement": "effect on blood pressure and heart rate", "setting": "healthy volunteers [7]", "value": "transient but significant decrease in both systolic and diastolic blood pressure with a significant increase in heart rate"},
      {"measurement": "half-life", "setting": "[8]", "value": 2, "unit": "min"}
    ]},
    {"compound": "Permanent N-Terminal CNP-38 PEG 5 kDa Conjugate ({PEG 5 kDa}-LQEHPNARKYKGANKKGLSKGCFGLKLDRIGSMSGLGC; disulfide 22-38; also: permanent PEG attachment; UniProt P23582 89-126, looked up, fragment) [Compound 15e]", "values": [
      {"measurement": "half life norm.", "setting": "recombinant human NEP", "value": "Almost no proteolysis"}
    ]},
    {"compound": "Reversible Lys26 CNP-38 PEG2×20 kDa Conjugate (LQEHPNARKYKGANKKGLSKGCFGLKLDRIGSMSGLGC; not fully specified (residue 26); ends and bridges not checked; also: reversible linker structure not given here; UniProt P23582 89-126, looked up, fragment) [Compound 10f]", "values": [
      {"measurement": "tolerability of dose administrations", "setting": "[1]", "value": "well tolerated"},
      {"measurement": "dose site reactions", "setting": "[2]", "value": "No dose site reactions were observed"}
    ]},
    {"compound": "Permanent Lys26 CNP-38 PEG 5 kDa Conjugate (LQEHPNARKYKGANKKGLSKGCFGLK(PEG 5 kDa)LDRIGSMSGLGC; cysteine pairing not given here; UniProt P23582 89-126, looked up, fragment) [Compound 19e]", "values": [
      {"measurement": "half life norm.", "setting": "recombinant human NEP", "value": 62.76, "unit": "h"}
    ]},
    {"compound": "Permanent Lys22 CNP-34 PEG 5 kDa Conjugate [Compound 18e]", "values": [
      {"measurement": "half life norm.", "setting": "recombinant human NEP", "value": 38.87, "unit": "h"}
    ]}
  ]
}
